{"source": "paper PMC3394726", "about": "(PLoS ONE, 2012)", "binders": {"B1": {"name": "scabies mite serpin SMSB4, wild type (natural protein)", "chain": "KPQHHSQSHQQPVLASDPNEDPLKALNLLQQQKQFTEHFFQQNNEKLNLLGGQEIIKCFDVNFTSNVLNNIDHISKIMIDGSRHFGLRLFQILNLFEPKTSSPGLVYSPISVWSTLILTYLGSDGVTEQELSQKLKLNQLPKPLVALAYRSLKWWKDFNVLKLMQNHTDATQVCSANKLYINDHLLVKDCFRTIFGDEIEMKSFSSRPQESLSEINDWVRVQTQGHIPNLLGPESISSNTNIVMINAVYFKSFWAQQFDSSKTKKQRFYVSMNEELEADMMTMDSVSVMYGISEELRASAVEIPYSNPDYSFLIILPDITRSLDSMIRTLTWNKIQLLLQNMYDDEVKLMIPKFRSEQEFELAGPLFSLGIKKLFDPRYANLNSIFMNSNNSRVALDSVIHKSFISVDEEGTEAAAATAVIFARSGRPAFPTEFIADRPFLYIIRDVSSNQLLFIGTVRRPYASQAIVA", "notes": "also called SMB4; SMSB4/wt"}}, "molecular_target": "T1, human complement C1q (human, UniProt P02745;P02746;P02747)", "T1 construct": "source: purified from human plasma; endogenous, normal human serum (NHS); copies: + +", "T1 sequence (P02745 23-245, chain 1 of 3)": "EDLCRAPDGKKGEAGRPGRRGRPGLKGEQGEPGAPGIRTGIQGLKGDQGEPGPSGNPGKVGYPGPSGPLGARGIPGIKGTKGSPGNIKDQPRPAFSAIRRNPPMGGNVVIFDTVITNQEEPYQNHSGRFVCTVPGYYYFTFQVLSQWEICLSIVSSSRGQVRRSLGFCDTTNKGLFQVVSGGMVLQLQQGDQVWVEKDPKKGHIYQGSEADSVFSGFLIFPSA", "T1 sequence (P02746 28-253, chain 2 of 3)": "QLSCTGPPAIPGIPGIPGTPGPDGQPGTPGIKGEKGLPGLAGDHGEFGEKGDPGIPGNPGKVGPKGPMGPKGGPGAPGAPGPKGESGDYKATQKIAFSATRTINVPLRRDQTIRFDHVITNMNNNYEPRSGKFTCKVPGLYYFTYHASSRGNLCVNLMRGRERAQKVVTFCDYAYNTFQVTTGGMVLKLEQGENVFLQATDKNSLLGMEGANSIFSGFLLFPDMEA", "T1 sequence (P02747 29-245, chain 3 of 3)": "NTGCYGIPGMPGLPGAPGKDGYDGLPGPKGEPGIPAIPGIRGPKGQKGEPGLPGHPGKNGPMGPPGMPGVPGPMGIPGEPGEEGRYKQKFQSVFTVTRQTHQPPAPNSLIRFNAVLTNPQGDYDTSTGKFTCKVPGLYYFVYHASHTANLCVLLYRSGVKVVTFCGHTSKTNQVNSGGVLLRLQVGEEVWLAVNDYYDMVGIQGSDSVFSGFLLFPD", "assay": "ELISA; SMSB3 or SMSB4 coated at 10 µg/ml; serial dilutions of normal human serum (0-100%) for 10, 20, 40 or 60 min at 37°C; bound complement factors detected with specific antibodies", "conditions": "one partner purified", "data": [{"binder": "B1", "values": [{"measurement": "binding result", "value": "binds"}]}]}
